Assay [1] concerns the target T1, human gastric inhibitory peptide receptor (GIPR) (human, UniProt P48546 22-466).
T1 sequence (looked up): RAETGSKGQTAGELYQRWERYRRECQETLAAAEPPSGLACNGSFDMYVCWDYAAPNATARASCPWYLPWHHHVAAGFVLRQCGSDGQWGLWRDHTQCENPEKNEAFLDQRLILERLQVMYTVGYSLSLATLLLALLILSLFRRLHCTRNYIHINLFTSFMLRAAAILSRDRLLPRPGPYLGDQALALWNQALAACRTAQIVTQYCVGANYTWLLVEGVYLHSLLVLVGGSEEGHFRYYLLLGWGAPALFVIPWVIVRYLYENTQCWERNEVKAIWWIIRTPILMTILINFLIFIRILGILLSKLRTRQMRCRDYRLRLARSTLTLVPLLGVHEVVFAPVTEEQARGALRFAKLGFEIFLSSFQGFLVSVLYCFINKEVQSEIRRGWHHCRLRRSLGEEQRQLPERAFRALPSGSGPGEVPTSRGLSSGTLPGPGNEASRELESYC
As to the kind of experiment: cell-based or functional assay.

Assay [2] has as its target human GLP-1 receptor (GLP-1R) (human, UniProt P43220 24-463). As to the kind of experiment: cell-based or functional assay.

Changes are numbered by the printed parent chain. Numbered stars: 1 amine (or outer) side, 2 acyl side, 3 side chain; on linkers, the order of the positions; unused ones are H or OH. Square brackets hold non-standard residues; d marks the D form. Side chains are listed from the residue outwards. Ends that are not written are not given here. * marks the point of attachment. C18 diacid = O=C(O)CCCCCCCCCCCCCCCCC(=O)*; αMePhe(2-F) = C[C@](N)(Cc1ccccc1F)C(=O)O; γGlu = O=C(O)[C@H](CCC(=O)[*:2])N[*:1]; αMeF = C[C@](N)(Cc1ccccc1)C(=O)O; AEEA = NCCOCCOCC(=O)O; Aib = CC(C)(N)C(=O)O

B1: Example 181 (peptide)
peptide: YXEGTXTSDXSIXLDEKAQXEFIXYLIEGGPSSGAPPPS
modifications: Y-Aib-EGT-αMeF(2F)-TSD-3Pal-SI-αMeF-LDEK((2-[2-(2-Amino-ethoxy)-ethoxy]-acetyl)2-(γ-Glu)-CO-(CH2)18-CO2H)AQ-Aib-EFI-(D-Glu)-YLIEGGPSSGAPPPS-NH2
In the case of B1, in assay [1], the “hGIPR cAMP EC50 ratio” value was determined as 4.1 and the “hGIPR cAMP Rel EC50” value was 0.0459 nM. For the same molecule, in assay [2], the “hGLP1R cAMP EC50 ratio” value turned out to be 0.718 and the “hGLP1R cAMP Rel EC50” value turned out to be 0.0592 nM.

B2: Example 182 (peptide)
peptide: B1 peptide
modifications: Y-Aib-EGT-αMeF(2F)-TSD-4Pal-SI-αMeF-LDEK((2-[2-(2-Amino-ethoxy)-ethoxy]-acetyl)2-(γ-Glu)-CO-(CH2)18-CO2H)AQ-Aib-EFI-(D-Glu)-YLIEGGPSSGAPPPS-NH2
Take B2: in assay [1], the “hGIPR cAMP EC50 ratio” value amounted to 4.37 and the “hGIPR cAMP Rel EC50” value came out at 0.0442 nM. Also, in assay [2], the “hGLP1R cAMP EC50 ratio” value amounted to 0.873 and the “hGLP1R cAMP Rel EC50” value was found to be 0.0463 nM.

B3: Example 183 (peptide)
peptide: B1 peptide with X10L
modifications: Y-Aib-EGT-αMeF(2F)-TSDLSI-αMeF-LDEK((2-[2-(2-Amino-ethoxy)-ethoxy]-acetyl)2-(γ-Glu)-CO-(CH2)18-CO2H)AQ-Aib-EFI-(D-Glu)-YLIEGGPSSGAPPPS-NH2
As to B3, in assay [1], the “hGIPR cAMP EC50 ratio” value was found to be 3.1 and the “hGIPR cAMP Rel EC50” value was 0.0615 nM. Also, in assay [2], the “hGLP1R cAMP EC50 ratio” value turned out to be 0.843 and the “hGLP1R cAMP Rel EC50” value is 0.0551 nM.

B4: Example 179 (peptide)
peptide: Y[Aib]EGT[αMePhe(2-F)]TSDHSI[αMeF]LDEK([AEEA-AEEA-γGlu-C18 diacid])AQ[Aib]HFI[dE]YLIEGGPSSG-NH2
modifications: N-terminus assumed
SMILES: CC[C@H](C)[C@H](NC(=O)[C@H](CC(C)C)NC(=O)[C@H](Cc1ccc(O)cc1)NC(=O)[C@@H](CCC(=O)O)NC(=O)[C@@H](NC(=O)[C@H](Cc1ccccc1)NC(=O)[C@H](Cc1c[nH]cn1)NC(=O)C(C)(C)NC(=O)[C@H](CCC(N)=O)NC(=O)[C@H](C)NC(=O)[C@H](CCCCNC(=O)COCCOCCNC(=O)COCCOCCNC(=O)CC[C@H](NC(=O)CCCCCCCCCCCCCCCCC(=O)O)C(=O)O)NC(=O)[C@H](CCC(=O)O)NC(=O)[C@H](CC(=O)O)NC(=O)[C@H](CC(C)C)NC(=O)[C@](C)(Cc1ccccc1)NC(=O)[C@@H](NC(=O)[C@H](CO)NC(=O)[C@H](Cc1c[nH]cn1)NC(=O)[C@H](CC(=O)O)NC(=O)[C@H](CO)NC(=O)[C@@H](NC(=O)[C@](C)(Cc1ccccc1F)NC(=O)[C@@H](NC(=O)CNC(=O)[C@H](CCC(=O)O)NC(=O)C(C)(C)NC(=O)[C@@H](N)Cc1ccc(O)cc1)[C@@H](C)O)[C@@H](C)O)[C@@H](C)CC)[C@@H](C)CC)C(=O)N[C@@H](CCC(=O)O)C(=O)NCC(=O)NCC(=O)N1CCC[C@H]1C(=O)N[C@@H](CO)C(=O)N[C@@H](CO)C(=O)NCC(N)=O
Regarding B4, in assay [1], the “hGIPR cAMP EC50 ratio” value stood at 0.0575 and the “hGIPR cAMP Rel EC50” value worked out at 1.83 nM. In assay [2], the “hGLP1R cAMP EC50 ratio” value was found to be 0.0169 and the “hGLP1R cAMP Rel EC50” value came to 2.7 nM.

B5: Example 180 (peptide)
peptide: Y[Aib]EGT[αMePhe(2-F)]TSDHSI[αMeF]LDEK([AEEA-AEEA-γGlu-C18 diacid])AQ[Aib]HFI[dE]YLIEGG-NH2
modifications: N-terminus assumed
SMILES: CC[C@H](C)[C@H](NC(=O)[C@H](CC(C)C)NC(=O)[C@H](Cc1ccc(O)cc1)NC(=O)[C@@H](CCC(=O)O)NC(=O)[C@@H](NC(=O)[C@H](Cc1ccccc1)NC(=O)[C@H](Cc1c[nH]cn1)NC(=O)C(C)(C)NC(=O)[C@H](CCC(N)=O)NC(=O)[C@H](C)NC(=O)[C@H](CCCCNC(=O)COCCOCCNC(=O)COCCOCCNC(=O)CC[C@H](NC(=O)CCCCCCCCCCCCCCCCC(=O)O)C(=O)O)NC(=O)[C@H](CCC(=O)O)NC(=O)[C@H](CC(=O)O)NC(=O)[C@H](CC(C)C)NC(=O)[C@](C)(Cc1ccccc1)NC(=O)[C@@H](NC(=O)[C@H](CO)NC(=O)[C@H](Cc1c[nH]cn1)NC(=O)[C@H](CC(=O)O)NC(=O)[C@H](CO)NC(=O)[C@@H](NC(=O)[C@](C)(Cc1ccccc1F)NC(=O)[C@@H](NC(=O)CNC(=O)[C@H](CCC(=O)O)NC(=O)C(C)(C)NC(=O)[C@@H](N)Cc1ccc(O)cc1)[C@@H](C)O)[C@@H](C)O)[C@@H](C)CC)[C@@H](C)CC)C(=O)N[C@@H](CCC(=O)O)C(=O)NCC(=O)NCC(N)=O
Take B5: in assay [1], the “hGIPR cAMP EC50 ratio” value is 0.133 and the “hGIPR cAMP Rel EC50” value was 0.79 nM. In assay [2], the “hGLP1R cAMP EC50 ratio” value worked out at 0.0212 and the “hGLP1R cAMP Rel EC50” value amounted to 2.16 nM.

(Values after patent US20220048967A1 (published 2022).)
